Where a chain is given by its changes, count along the chain named.
T1: recombinant human Trop-2-his protein (ACCESSION NO.: NP_002344.2, AA 1-274) (human, UniProt P09758 27-274)
T1 construct: range 27-274; also called recombinant human Trop-2 protein; recombinant human Trop-2 extracellular domain; not shown: his tag
T1 sequence (looked up): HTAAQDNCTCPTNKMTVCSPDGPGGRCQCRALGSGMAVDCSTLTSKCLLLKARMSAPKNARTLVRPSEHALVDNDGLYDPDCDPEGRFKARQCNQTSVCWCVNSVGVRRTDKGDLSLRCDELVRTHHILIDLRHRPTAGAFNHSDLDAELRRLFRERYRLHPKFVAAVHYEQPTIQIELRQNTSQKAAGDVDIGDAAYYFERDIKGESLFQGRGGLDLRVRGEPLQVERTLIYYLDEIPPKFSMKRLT

B1: h23-12-1 (antibody, human IgG1, kappa, V domains shown)
VH: QVQLVQSGAEVKKPGASVKVSCKASGYTFTSYWMHWVRQAPGQGLEWMGEITPSDNYTSYNQKFKGRVTITRDTSTSTAYMELSSLRSEDTAVYYCARGHGNYVSFDYWGQGTLVTVSS
VL: DIQMTQSPSSLSASVGDRVTITCRASQDISNYLNWYQQKPGKAPKLLIYYTSRLHSGVPSRFSGSGSGTDFTLTISSLQPEDFATYFCQQGYTLPPYTFGQGTKLEIKR
notes: also called CDR grafted antibody 23-12
B2: h23-12-26 (antibody, human IgG1, kappa, V domains shown)
VH: B1 VH with N61A
VL: B1 VL with H55E
B3: h23-12-36 (antibody, human IgG1, kappa, V domains shown)
VH: B1 VH
VL: B1 VL with G91Y
B4: h23-12-28 (antibody, human IgG1, kappa, V domains shown)
VH: B1 VH with H100Q
VL: B1 VL with H55E
B5: h23-12-9 (antibody, human IgG1, kappa, V domains shown)
VH: B1 VH with S54G
VL: B1 VL with T51A
B6: h23-12-19 (antibody, human IgG1, kappa, V domains shown)
VH: B1 VH with N61A
VL: B1 VL with R53S
B7: h23-12-16 (antibody, human IgG1, kappa, V domains shown)
VH: B1 VH with S54G
VL: B1 VL with R53S
B8: h23-12-37 (antibody, human IgG1, kappa, V domains shown)
VH: B1 VH with S54G
VL: B1 VL with G91Y
B9: h23-12-7 (antibody, human IgG1, kappa, V domains shown)
VH: B1 VH with H100Q
VL: B1 VL
B10: h23-12-22 (antibody, human IgG1, kappa, V domains shown)
VH: B1 VH
VL: B1 VL with H55E
B11: h23-12-20 (antibody, human IgG1, kappa, V domains shown)
VH: B1 VH with H100E
VL: B1 VL with R53S
B12: h23-12-8 (antibody, human IgG1, kappa, V domains shown)
VH: B1 VH
VL: B1 VL with T51A
B13: h23-12-2 (antibody, human IgG1, kappa, V domains shown)
VH: B1 VH with S54G
VL: B1 VL
B14: h23-12-23 (antibody, human IgG1, kappa, V domains shown)
VH: B1 VH with S54G
VL: B1 VL with H55E
B15: h23-12-14 (antibody, human IgG1, kappa, V domains shown)
VH: B1 VH with H100Q
VL: B1 VL with T51A
B16: h23-12-29 (antibody, human IgG1, kappa, V domains shown)
VH: B1 VH
VL: B1 VL with H55Q
B17: h23-12-42 (antibody, human IgG1, kappa, V domains shown)
VH: B1 VH with H100Q
VL: B1 VL with G91Y
B18: h23-12-34 (antibody, human IgG1, kappa, V domains shown)
VH: B1 VH with H100E
VL: B1 VL with H55Q
B19: h23-12-6 (antibody, human IgG1, kappa, V domains shown)
VH: B1 VH with H100E
VL: B1 VL
B20: h23-12-12 (antibody, human IgG1, kappa, V domains shown)
VH: B1 VH with N61A
VL: B1 VL with T51A
B21: h23-12-30 (antibody, human IgG1, kappa, V domains shown)
VH: B1 VH with S54G
VL: B1 VL with H55Q
B22: h23-12-3 (antibody, human IgG1, kappa, V domains shown)
VH: B1 VH with N56G
VL: B1 VL
B23: h23-12-5 (antibody, human IgG1, kappa, V domains shown)
VH: B1 VH with N61A
VL: B1 VL
B24: h23-12-17 (antibody, human IgG1, kappa, V domains shown)
VH: B1 VH with N56G
VL: B1 VL with R53S
B25: h23-12-40 (antibody, human IgG1, kappa, V domains shown)
VH: B1 VH with N61A
VL: B1 VL with G91Y
B26: h23-12-21 (antibody, human IgG1, kappa, V domains shown)
VH: B1 VH with H100Q
VL: B1 VL with R53S
B27: h23-12-31 (antibody, human IgG1, kappa, V domains shown)
VH: B1 VH with N56G
VL: B1 VL with H55Q
B28: h23-12-13 (antibody, human IgG1, kappa, V domains shown)
VH: B1 VH with H100E
VL: B1 VL with T51A
B29: h23-12-10 (antibody, human IgG1, kappa, V domains shown)
VH: B1 VH with N56G
VL: B1 VL with T51A
B30: h23-12-24 (antibody, human IgG1, kappa, V domains shown)
VH: B1 VH with N56G
VL: B1 VL with H55E
B31: h23-12-43 (antibody, human IgG1, kappa, V domains shown)
VH: B1 VH
VL: B1 VL with T93S
B32: h23-12-39 (antibody, human IgG1, kappa, V domains shown)
VH: B1 VH with T58G
VL: B1 VL with G91Y
B33: h23-12-41 (antibody, human IgG1, kappa, V domains shown)
VH: B1 VH with H100E
VL: B1 VL with G91Y
B34: h23-12-38 (antibody, human IgG1, kappa, V domains shown)
VH: B1 VH with N56G
VL: B1 VL with G91Y
B35: h23-12-35 (antibody, human IgG1, kappa, V domains shown)
VH: B1 VH with H100Q
VL: B1 VL with H55Q
B36: h23-12-11 (antibody, human IgG1, kappa, V domains shown)
VH: B1 VH with T58G
VL: B1 VL with T51A
B37: h23-12-18 (antibody, human IgG1, kappa, V domains shown)
VH: B1 VH with T58G
VL: B1 VL with R53S
B38: h23-12-4 (antibody, human IgG1, kappa, V domains shown)
VH: B1 VH with T58G
VL: B1 VL
B39: h23-12-15 (antibody, human IgG1, kappa, V domains shown)
VH: B1 VH
VL: B1 VL with R53S
B40: h23-12-44 (antibody, human IgG1, kappa, V domains shown)
VH: B1 VH with S54G
VL: B1 VL with T93S
B41: h23-12-32 (antibody, human IgG1, kappa, V domains shown)
VH: B1 VH with T58G
VL: B1 VL with H55Q
B42: h23-12-33 (antibody, human IgG1, kappa, V domains shown)
VH: B1 VH with N61A
VL: B1 VL with H55Q
B43: h23-12-27 (antibody, human IgG1, kappa, V domains shown)
VH: B1 VH with H100E
VL: B1 VL with H55E

These binders were tested against T1, recombinant human Trop-2-his protein … (assay: BLI, antibody on AHC sensor, Trop-2-his 60 nM).
Protocol: 5-6 days after cell transfection, culture supernatants were purified through ProA affinity chromatography column to obtain different humanized antibodies. Affinities of the obtained antibodies were determined by an assay including capturing Fc fragments of the antibodies with anti-human IgG Fc capture (AHC) biosensors using Octet QKe system instrument from Fortebio. For the assay, each of the humanized antibodies and control antibody Sacituzumab was diluted to 4 μg/ml in PBS, and was allowed to flow through the surface of an AHC biosensor (Cat.: 18-0015, PALL) for 120 s. Recombinant human Trop-2-his protein (ACCESSION NO.: NP_002344.2, AA 1-274) was used as a mobile phase, and its concentration was 60 nM. The binding time was 100 s and the dissociation time was 300 s. When the assay was finished, data from which the response values of blank control had been deducted were fitted to a 1:1 Langmuir binding model using software, and then kinetic constants for antigen-antibody binding were calculated.
Affinities of the antibodies obtained from the combinations of mutants of murine antibody 23-12, chimeric antibody ch23-12 and control antibody Sacituzumab to recombinant human Trop-2-his protein were determined by ForteBijo (Table 5).

Row | Kd | Binder
1 | 0.272 nM | B1
2 | 5.43 nM | B2
3 | 8.81 nM | B3
4 | 4.13 nM | B4
5 | 1.1 nM | B5
6 | 10 nM | B6
7 | 2.87 nM | B7
8 | 0.893 nM | B8
9 | 6.8 nM | B9
10 | 1.3 nM | B10
11 | 1.46 nM | B11
12 | 0.9 nM | B12
13 | 0.893 nM | B13
14 | 0.77 nM | B14
15 | 23.9 nM | B15
16 | 6.72 nM | B16
17 | 3.09 nM | B17
18 | 5.57 nM | B18
19 | 0.298 nM | B19
20 | 26.2 nM | B20
21 | 9.76 nM | B21
22 | 15 nM | B22

Row | Kd | Binder
23 | 3.2 nM | B23
24 | 28 nM | B24
25 | 2.16 nM | B25
26 | 22.8 nM | B26
27 | 63.9 nM | B27
28 | 0.916 nM | B28
29 | 9.62 nM | B29
30 | 5.21 nM | B30
31 | 0.98 nM | B31
32 | 0.492 nM | B32
33 | 0.782 nM | B33
34 | 7.86 nM | B34
35 | 9.77 nM | B35
36 | 0.881 nM | B36
37 | 0.991 nM | B37
38 | 0.827 nM | B38
39 | 1.43 nM | B39
40 | 0.717 nM | B40
41 | 0.601 nM | B41
42 | 8.91 nM | B42
43 | 0.496 nM | B43

Reference: patent US20240092930A1 (MABWELL SHANGHAI BIOSCIENCE, published 2024)
